Assay: yeast display, Sf9 membrane polyspecificity reagent, FACS + sequencing; frameworks hold sequencing errors
In short: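 Nanobodies came from a synthetic yeast display library in Saccharomyces cerevisiae BJ5465, induced with galactose for 36–48 hours and stained for 1 hour at 4 °C with 10% biotinylated, detergent-solubilized Sf9 membrane reagent. Cells were enriched on streptavidin microbeads and then FACS-sorted, with low and high (top ~1%) gates set on anti-HA fluorescence for expression and streptavidin fluorescence for reagent binding. Each polyreactivity label reflects the gate a clone came from. Genes were amplified by colony PCR, sequenced by MiSeq 2 × 250 and filtered by CDR length.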

Row | Sequence | polyreactivity (PSR sort gate)
1 | QVQLVESGGGLVQAGGSLRLSCAASGITFYDYDMGWYIQAPGKERELVADISYSGGGTYYADSVKGRFTISRDNAKNTVYLQMNSLKPEDTAVYYCAADSQRYYGDYYWGQGTQVTVSS | high polyreactivity
2 | QVQLVESGGGLVQAGGSLRLSCAASGITFYEYAMGWYRQAHGKERELVAAISQSGGSTYYADSVKGRFTISRDNAKNTVYLQMNSLKPEDTAVYYCAADIKWSIRRAYDYWGQGTQVTVSS | high polyreactivity
3 | QVQLVESGGGLVQAGGSLRLSCAASGITFYEYAMGWYRQAPGKERELVAAITSGGTTNYADSVKGRFTISRDNAKNTVYLQMNSLKPEDTAVYYCAKDEGEGYDYWGQGTQVTVSS | low polyreactivity
4 | QVQLVESGGGLVQAGGSLRLSCAASGITFYFYAMGWYRQAPGKERELVAAISGSSGSTYYADSVKGRFTISRDNAKNTVYLQMNSLKPEDTAVYYCAAYNRWSGGFEYWGQGTQVTVSS | high polyreactivity
5 | QVQLVESGGGLVQAGGSLRLSCAASGITFYFYTMGWYRPAPGKERELVAAITSSGGTTYYADSVKGRFTISRDNAKNTVYLQMNSLKPEDTAVYYCAARRWYQSRRGGFDYWGQGTQVTVSS | high polyreactivity
6 | QVQLVESGGGLVQAGGSLRLSCAASGITFYGYAMGWYRPAPGKERELVARITISGRTNYADYVKGRFTISRDNAKNTVYLQMNSLKPEDTAVYYCATLVHWSYPYYYWGQGTQVTVSS | high polyreactivity
7 | QVQLVESGGGLVQAGGSLRLSCAASGITFYGYAMGWYRQAPGKERELVAAISESGGSTYYADSVKGRFTISRDNAKNSVYLQMNRLKEEDTAVYYCASQGYSVYWYSNYWGQCTQVTVSS | low polyreactivity
8 | QVQLVESGGGLVQAGGSLRLSCAASGITFYGYAMGWYRQAPGKERELVAAISESGGSTYYADSVKGRFTISRDNAKNTVYLQMNSLKPEDTAVYYCNAESYSTWSFGHRYEYDYWGQGTQVTVSS | low polyreactivity
9 | QVQLVESGGGLVQAGGSLRLSCAASGITFYGYAMGWYRQAPGKERELVAVITSSGSSTYYADSVKGRFTISRDNAKNTVYLQMNSLKPEDTAVYYCNARPGRRSLRSRTYDYWGQGTQVTVSS | high polyreactivity
10 | QVQLVESGGGLVQAGGSLRLSCAASGITFYGYVMGWYRQAPGKERELVAAISVRGGSTYYADSVKGRFTISRDNAKNTVYLQMNSLKPEDTAVYYSAAWSYAYYYRLRYVSHDYWRQGTQVTVSS | high polyreactivity
11 | QVQLVESGGGLVQAGGSLRLSCAASGITFYHNAMGWYRPAPRKERELVATISRRGGRTYYADSVKGRFTISRDNAKNTVYLQMNSLKPEDTAVYYCAAAQKQSRYDYWGQGTQVTVSS | high polyreactivity
12 | QVQLVESGGGLVQAGGSLRLSCAASGITFYHYAMGWYRQAPGKEREFVASITSSGGSTYYADSVKGRFTISRDNAKNTVYLQMNSLKPDDSAVYYCAARGYNPYGRKVGYLGQGTQVTVSS | high polyreactivity
13 | QVQLVESGGGLVQAGGSLRLSCAASGITFYHYAMGWYRQAPGKERELVAAISRSGGSTSYADSVMGRFTISRDNAKNTVYLQMNSLKPEDTAVYYCAARLVRESEPLGYWGQGTQVTVSS | high polyreactivity
14 | QVQLVESGGGLVQAGGSLRLSCAASGITFYHYAMGWYRQAPGKERELVATISSRGGTTYYADSVKGRFTISRDNAKNTVYLQMNSLKPEDTAVYYCADRTWIIYPVSKYDSWGQGTQVTVSS | high polyreactivity
15 | QVQLVESGGGLVQAGGSLRLSCAASGITFYINAMGWSRQAPRKERALLAGISSGGSTNYADSVKGRFTISRDNAKNTVYLQMNSLKPEDTAVYYCWVSRTYHLDYWGQGTQVTVSS | low polyreactivity
16 | QVQLVESGGGLVQAGGSLRLSCAASGITFYINGMGWYRQAPGKEREFVAAIYDGVNTYYADSVKGRFTISRDNAKNTVYLQMNSLKPEDTAVYYCAADYPPARWEMEYWGQGTQVTVSS | low polyreactivity
17 | QVQLVESGGGLVQAGGSLRLSCAASGITFYKYAMGWYRQAPGKERELVAAITSTGGRTYYADSVKGRFTISGDNAKNSVYLQMNSLKPEDTAVYYCAKVFNQFIEHDYWGQGTQVTVSS | low polyreactivity
18 | QVQLVESGGGLVQAGGSLRLSCAASGITFYKYVMGWYRKAPGKERELVAAISSVGSTYYADSVKGRFTISRDNAKNTVYLQMNSLKPEDTAVYYCAAKYWKWYHYGFGYWGQGTQVTVSS | high polyreactivity
19 | QVQLVESGGGLVQAGGSLRLSCAASGITFYKYVMGWYRQAPGKERELVAAISSVGSTYYADSVKGRFTISRDNAKNTVYLQMNSLKPEDTAVYYCAAKYWKWYHYGFGYWGQGTQVTVSS | high polyreactivity
20 | QVQLVESGGGLVQAGGSLRLSCAASGITFYRNAMGWYRQAPGKEMELVAAITWNGGRTYYADSVKGRFTISRDNAKNTVYLQMNSLKPEDTAVYYCAADSGTRNLASYRYYYWGQATQVTVSS | low polyreactivity
21 | QVQLVESGGGLVQAGGSLRLSCAASGITFYRNAMGWYRQAPGKERELVAAIDVGDGTYYADSVKGRFTISRDNAKNSVYFQMNSLKPEDTAVYYCNKTFLFLEYDSWGQGTQVTVSS | low polyreactivity
22 | QVQLVESGGGLVQAGGSLRLSCAASGITFYRNAMGWYRQAPGKERELVAAIDVGDGTYYADSVKGRFTISRDNAKNTDYLQMNSLKPEDTAVYYCNKTFLFLEYDSWGQGTQVTVSS | low polyreactivity

Row | Sequence | polyreactivity (PSR sort gate)
23 | QVQLVESGGGLVQAGGSLRLSCAASGITFYRNAMGWYRQAPGKERELVAAISRRGGITRYADSVKGRFTISRDNAKNTVYLQMNSLKPEDTAVYYCAKAIGSTALRRATEDYWGQGTQVTVSS | high polyreactivity
24 | QVQLVESGGGLVQAGGSLRLSCAASGITFYRYAMGWYRQAPGKEREFVAAITWGSTYYADSVKGRFTISRDNAKNTVYLQMTSLKPEDTAVYYCNKKGYTVGATVGYWGQGTQVTVSS | low polyreactivity
25 | QVQLVESGGGLVQAGGSLRLSCAASGITFYRYAMGWYRQAPGKERELVAAIRGGGASTYYADSVKGRFTISRDNAKNTVYLQMNSLKPEDTAVYYCAARAARSITNGYWGQGTQVTVSS | high polyreactivity
26 | QVQLVESGGGLVQAGGSLRLSCAASGITFYRYAMGWYRQAPGKERELVAAISRSGGSTYYADSVKGRFTISRDNAKNTVYLQMNSLKPEDTAVDYCAAYILGNRDGYDYWGQGTQVTVSS | high polyreactivity
27 | QVQLVESGGGLVQAGGSLRLSCAASGITFYRYAMGWYRQAPGKERELVAAISWSGGRTYYADSVKGRFTISRDNAKNTVYLQMNSLKPEDTAVYYCNAYLYPYTRLDYWGQGTQVTVSS | high polyreactivity
28 | QVQLVESGGGLVQAGGSLRLSCAASGITFYRYAMGWYRQAPGKERELVATITSGGSTYYADSVKGRFTISRDNAKNTVYLQMNSLKPEDTAVYYCAAESVWTWYYTTAGMDYWGQGTQVTVSS | high polyreactivity
29 | QVQLVESGGGLVQAGGSLRLSCAASGITFYRYDMGWYRQAPGKERELVAAISTRGGSTYYADSVKGRFTISRDNAKNTVYLQMNSLKPEDTAVYYCAKERVGTSLPFKDYYWGQGTQVTVSS | low polyreactivity
30 | QVQLVESGGGLVQAGGSLRLSCAASGITFYSNAMGWYRPAPGKERELVAAISYRGGSTYYADSVKGRFTISRDNAKNTVYLQMNSLKPEDTAVYYCNKEVDWGWGRISYDSWGQGTQVTVSS | low polyreactivity
31 | QVQLVESGGGLVQAGGSLRLSCAASGITFYSYAMGWYRQAPGKERELVAGISGGGGTSYADSVKGRFTISRDNAKNTVYLQMNSLKPEDTAVYYCNVYAYTYYYWAFYTEDYWGQGTQVTVSS | high polyreactivity
32 | QVQLVESGGGLVQAGGSLRLSCAASGITFYTYAMGWYRQAPGKERELVAAITNGGNTSYADSVKGRFTISRDNAKNTVYLQMNSLKPEDTAVYYCAAVVTLPIWGNWYYVRYGYWGQGTQVTVSS | low polyreactivity
33 | QVQLVESGGGLVQAGGSLRLSCAASGITFYTYAMGWYRQAPRKERELVAAISGSGGSTYYADSVKGRFTISRDNAKNTVYLQMNSLKPEDTAVYYCAARWPRGPFGNRHDYWGQGTQVTVSS | high polyreactivity
34 | QVQLVESGGGLVQAGGSLRLSCAASGITFYVHAMGWYRQAPGKERELVASITWSGGSTYYADSVKGRFTISRDNAKNTVYLQMNSLKPEDTAVYYCAHVLYRAYEYWGQGTQVTVSS | low polyreactivity
35 | QVQLVESGGGLVQAGGSLRLSCAASGITFYVYAMGWYRKAPGKERELVAAITSNGASTYYADSVKGRFTISRDNAKNTVYLQMNSLKPEDTAVYYCARRIKFPYHSYVGEYDYWGQGTQVTVSS | low polyreactivity
36 | QVQLVESGGGLVQAGGSLRLSCAASGITFYVYAMGWYRQAPGKEREFVAAISTRDGTTYADSLKGRFTISRDNAKNTVYLQMNSLKPEDTAVYYCAAAYYYDGQQGDFDYWGQGTQVTVSS | low polyreactivity
37 | QVQLVESGGGLVQAGGSLRLSCAASGITFYVYAMGWYRQAPGKERELVAAINYDSGSTYYADSVKGRFTISRDNAKNTVYLQMNSLKPEDTAVYYCATDGVNPFYAYDFWGQGTQVTVSS | low polyreactivity
38 | QVQLVESGGGLVQAGGSLRLSCAASGITFYVYAMGWYRQAPGKERELVAANSSGGGSTYYADSVKGRFTISRDNAKNTVYLQMNSLKPEDTAVYYCNKLFPGTYDGAHGYWGQGTQVTVSS | low polyreactivity
39 | QVQLVESGGGLVQAGGSLRLSCAASGITFYYYAMGWYRQAPGKERELVAAIDTDGSTYYADSVKGRFTISRDNAKNTVYLQMNSLKPEDTAVYYCAAEIEYYPYSGYIYDYWGQGTQVTVSS | high polyreactivity
40 | QVQLVESGGGLVQAGGSLRLSCAASGITFYYYAMGWYRQAPGKERELVAAISRSGITYYADSVKGRFTISRDNAKNTVYLQMNSLKPEDTAVYYCAAGRRFDQSMYYWGQGTQVTVSS | high polyreactivity
41 | QVQLVESGGGLVQAGGSLRLSCAASGITFYYYAMGWYRQAPGKERELVAAISVSGGSTYYADSVKGRFTISRDNAKNTVYLQMNSLKPEDTAVYYCAAADLLSYTYPEYDYWGQGTQVTVSS | low polyreactivity
42 | QVQLVESGGGLVQAGGSLRLSCAASGITFYYYAMGWYRQAPGKERELVAAISWSGGRTYYADSVKGRFTISRDNAKNTVYLQMNSLKPEDTAVYYCAAGYYLYHFVSLYGGDYWGQGTQVTVSS | high polyreactivity
43 | QVQLVESGGGLVQAGGSLRLSCAASGITFYYYAMGWYRQAPGKERELVADISSSGGSTYYADSVKGRFTISRDNAKNTVYLQMNSLKPEDTAVYYCNAVYRWYRPRVRFFRYDYWGQGTQVTVSS | high polyreactivity

Reference: the nanobody polyreactivity screen of Harvey et al. (2022)
